Test results reported in patent US20240262923A1 (Sanofi, published 2024).
Like-named read-outs stand apart in the source and are kept apart here.

T1: human OX40 (human, UniProt P43489 29-216)
T1 construct: also called hOX40
T1 sequence (looked up): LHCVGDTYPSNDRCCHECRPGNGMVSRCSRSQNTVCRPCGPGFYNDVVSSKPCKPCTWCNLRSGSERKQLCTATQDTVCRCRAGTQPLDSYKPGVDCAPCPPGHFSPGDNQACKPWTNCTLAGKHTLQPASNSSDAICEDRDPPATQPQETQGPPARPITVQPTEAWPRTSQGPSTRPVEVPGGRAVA

T2: cynomolgus monkey 4-1BB (SPR analyte) (cynomolgus monkey, UniProt A9YYE7 24-186)
T2 construct: also called cy4-1BB
T2 sequence: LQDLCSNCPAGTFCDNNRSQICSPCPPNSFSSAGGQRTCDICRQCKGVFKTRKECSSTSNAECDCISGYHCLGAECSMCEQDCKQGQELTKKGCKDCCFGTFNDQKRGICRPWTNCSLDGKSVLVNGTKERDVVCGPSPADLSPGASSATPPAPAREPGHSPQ


What was measured:
human CD40 = human CD40 (human, UniProt P25942 21-193); assay: binding assay (FIG. 2), bivalent Fab-like
human OX40 = target: T1, human OX40; assay: binding assay (FIG. 2), bivalent Fab-like
[1] = target: T3, human His-tagged 4-1BB recombinant protein (human, UniProt Q07011 24-186); assay: ELISA binding on 4-1BB-his, bivalent monoparatopic Fab-like constructs
T3 construct: also called human 4-1BB; h4-1BB; not shown: His tag

[2] = target: T4, extracellular domain of human 4-1BB (amino acid residues 24-186 of SEQ ID NO: 13) (human, UniProt Q07011 24-186); assay: X-ray crystallography of the complex
T4 construct: Used for X-ray crystallography

[3] = target: T5, cynomolgus monkey PD-1 (SPR analyte) (cynomolgus monkey, UniProt B0LAJ3 25-170); assay: SPR, KD on cyPD-1 against KD on hPD-1
T5 construct: also called cyPD-1

[4] = target: T6, cynomolgus monkey 4-1BB expressed on 300.19 pre-B cells (cynomolgus monkey, UniProt A9YYE7 24-254); assay: flow cytometry on 300.19 pre-B cells, cy4-1BB
T6 construct: whole, on cells; also called cy4-1BB; Pre-B cy4-1BB

[5] = target: T7, human PD-1 expressed on cells (300.19 pre-B cells, PD-1 NFAT-luc2 Jurkat cells, primary T-cells) (human, UniProt Q15116 25-288); assay: cell-based or functional assay
human PD-1 (SPR analyte) [6] = target: T8, human PD-1 (SPR analyte) (human, UniProt Q15116 25-167, limits assumed); assay: SPR (Biacore 8K), binder captured on anti-Fc chip, target as analyte, 1:1 model
T8 construct: Soluble analyte in SPR; also called hPD-1

[7] = target: T5, cynomolgus monkey PD-1 (SPR analyte); assay: as above
human PD-1 (SPR analyte) [8] = target: T8, human PD-1 (SPR analyte); assay: as above; remark: listed apart in the source
[9] = target: T6, cynomolgus monkey 4-1BB expressed on …; assay: flow cytometry on 300.19 pre-B cells, cy4-1BB against h4-1BB
[10] = target: T6, cynomolgus monkey 4-1BB expressed on …; assay: flow cytometry on 300.19 pre-B cells
[11] = target: T9, cynomolgus monkey PD-1 expressed on 300.19 pre-B cells (cynomolgus monkey, UniProt B0LAJ3 25-288); assay: flow cytometry on 300.19 pre-B cells, cyPD-1 against hPD-1
T9 construct: also called cyPD-1; Pre-B cyPD-1

[12] = target: T2, cynomolgus monkey 4-1BB (SPR analyte); assay: SPR (Biacore 8K), binder captured on anti-Fc chip, target as analyte, 1:1 model
[13] = target: T7, human PD-1 expressed on cells (300.19 …); assay: flow cytometry on 300.19 pre-B cells
[14] = target: T9, cynomolgus monkey PD-1 expressed on …; assay: flow cytometry on 300.19 pre-B cells
[15] = target: T7, human PD-1 expressed on cells (300.19 …); assay: flow cytometry on PD-1+ Jurkat T-cells
[16] = target: T2, cynomolgus monkey 4-1BB (SPR analyte); assay: SPR, KD on cy4-1BB against KD on h4-1BB
[17] = target: T6, cynomolgus monkey 4-1BB expressed on …; assay: flow cytometry on 300.19 pre-B cells, cy4-1BB, against Optimized Construct #3
[18] = target: T3, human His-tagged 4-1BB recombinant …; assay: binding assay (FIG. 2), bivalent monoparatopic Fab-like

T7 sequence (Q15116 25-288 limits assumed): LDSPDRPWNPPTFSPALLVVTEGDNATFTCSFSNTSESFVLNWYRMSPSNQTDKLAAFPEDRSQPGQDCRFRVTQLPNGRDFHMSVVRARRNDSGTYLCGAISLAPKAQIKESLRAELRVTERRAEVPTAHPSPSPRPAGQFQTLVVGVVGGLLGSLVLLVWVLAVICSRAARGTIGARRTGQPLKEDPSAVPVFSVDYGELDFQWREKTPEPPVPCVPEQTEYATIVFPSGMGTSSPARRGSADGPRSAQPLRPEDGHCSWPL
T8 sequence (Q15116 25-167 limits assumed): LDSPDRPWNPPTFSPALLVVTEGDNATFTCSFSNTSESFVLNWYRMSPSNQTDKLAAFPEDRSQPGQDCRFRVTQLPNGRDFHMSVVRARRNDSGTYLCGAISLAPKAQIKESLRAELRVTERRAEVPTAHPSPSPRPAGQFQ
T9 sequence (B0LAJ3 entry or part of it limits assumed): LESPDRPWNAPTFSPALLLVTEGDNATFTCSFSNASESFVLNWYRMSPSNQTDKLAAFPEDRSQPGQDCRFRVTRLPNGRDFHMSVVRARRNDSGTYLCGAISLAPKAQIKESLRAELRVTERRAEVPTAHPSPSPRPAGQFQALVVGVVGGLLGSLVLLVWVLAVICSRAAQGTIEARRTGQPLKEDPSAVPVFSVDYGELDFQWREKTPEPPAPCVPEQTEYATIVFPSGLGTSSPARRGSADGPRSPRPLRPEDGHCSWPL
T5 sequence (B0LAJ3 entry or part of it limits assumed): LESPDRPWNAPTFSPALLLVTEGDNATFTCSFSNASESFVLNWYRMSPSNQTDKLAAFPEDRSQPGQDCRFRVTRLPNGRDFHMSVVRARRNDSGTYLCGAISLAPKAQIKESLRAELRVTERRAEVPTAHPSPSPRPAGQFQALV
Chain of human CD40 (P25942 21-193 limits assumed): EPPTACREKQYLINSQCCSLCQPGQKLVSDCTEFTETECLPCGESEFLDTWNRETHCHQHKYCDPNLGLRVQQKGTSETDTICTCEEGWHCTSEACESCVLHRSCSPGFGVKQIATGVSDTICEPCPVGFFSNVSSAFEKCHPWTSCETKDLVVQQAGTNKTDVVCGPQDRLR

Binder	Ratio KD cyno/human [3] [fold]	EC50 value (nM), PD-1 reporter assay [5] [nM]	Kd (human PD-1 (SPR analyte) [6]) [nM]	Kd [7] [nM]	Ratio EC50 cy/h [9] [fold]	EC50 [10] [nM]	Ratio EC50 cy/h [11] [fold]	EC50 [13] [nM]	EC50 [14] [nM]	EC50 [15] [nM]	masking efficacy (masked EC50/naked EC50) [17] [fold]	also measured
anti-4-1BB VHH Clone #5, bivalent monoparatopic Fab-like construct (other, not shown: human CL (lambda) constant domain, tag if any; human IgG1 CH1 domain, HA and 6-His tags) chain 1: QVQLQESGGGLVQPGGSLRLSCAASGFTFSDHTMTWVRQAPGKGLEWVSSISSGGSRIIYADSVKGRFTISRDNAKNTLYLQMNNLRPEDTAVYFCARGTRYKMSTSGPGTQVTVSS chain 2: QVQLQESGGGLVQPGGSLRLSCAASGFTFSDHTMTWVRQAPGKGLEWVSSISSGGSRIIYADSVKGRFTISRDNAKNTLYLQMNNLRPEDTAVYFCARGTRYKMSTSGPGTQVTVSS												binding result (human CD40): no binding; binding result (human OX40): no binding; EC50 (read off the curve) [1]: ~3 nM
anti-4-1BB clone #5 VHH (VHH) VHH: QVQLQESGGGLVQPGGSLRLSCAASGFTFSDHTMTWVRQAPGKGLEWVSSISSGGSRIIYADSVKGRFTISRDNAKNTLYLQMNNLRPEDTAVYFCARGTRYKMSTSGPGTQVTVSS												binding result [2]: binds
anti-4-1BB clone #5a VHH, bivalent monoparatopic Fab-like construct (other, not shown: human CL (lambda) constant domain, tag if any; human IgG1 CH1 domain, HA and 6-His tags) chain 1: QVQLQESGGGWVQPGGSLRLSCAASGFAFRDFTMSWARQAPGERFEWISSINPSGGSQSYLPSVKGRFTISRDNAKNTMFLQMDNLTPEDTAVYFCARGTRYKMSTSGPGTQVTVSS chain 2: QVQLQESGGGWVQPGGSLRLSCAASGFAFRDFTMSWARQAPGERFEWISSINPSGGSQSYLPSVKGRFTISRDNAKNTMFLQMDNLTPEDTAVYFCARGTRYKMSTSGPGTQVTVSS												EC50 (read off the curve) [1]: ~0.5 nM
Optimized Construct #3 (bispecific antibody, also called Optimized Construct #3 (unmasked); naked) heavy: not shown light: EIVLTQSPATLSLSPGERATLSCGASQSVPINFLAWYQQKPGLAPRLLIYEASSRHTGIPDRFSGSGSGTDFTLTISRLEPEDFAVYYCGQYGSSPYTFGQGTKLEIKRTVAAPSVFIFPPSDEQLKSGTASVVCLLNNFYPREAKVQWKVDNALQSGNSQESVTEQDSKDSTYSLSSTLTLSKADYEKHKVYACEVTHQGLSSPVTKSFNRGEC	2	1.39	7.29	14.9	0.3	0.91	1.04	1.4	1.45	0.5		masking efficacy (masked EC50/naked EC50) [4]: 1 fold; Kd (human PD-1 (SPR analyte) [8]): 4.54 nM; Kd [12]: 21.1 nM; Ratio KD cyno/human [16]: 1.9 fold
MC3 (conditionally-active, masked Optimized Construct #3; MM1 and cleavable linker #2) (bispecific antibody) heavy: not shown light: EIVLTQSPATLSLSPGERATLSCGASQSVPINFLAWYQQKPGLAPRLLIYEASSRHTGIPDRFSGSGSGTDFTLTISRLEPEDFAVYYCGQYGSSPYTFGQGTKLEIKRTVAAPSVFIFPPSDEQLKSGTASVVCLLNNFYPREAKVQWKVDNALQSGNSQESVTEQDSKDSTYSLSSTLTLSKADYEKHKVYACEVTHQGLSSPVTKSFNRGEC	2	2.62	6.73	13.4	0.23	5.9	0.8	1.76	1.4	0.89	6	
MC1 (conditionally-active, masked Optimized Construct #3; MM1 and cleavable linker #1) (bispecific antibody) heavy: not shown light: EIVLTQSPATLSLSPGERATLSCGASQSVPINFLAWYQQKPGLAPRLLIYEASSRHTGIPDRFSGSGSGTDFTLTISRLEPEDFAVYYCGQYGSSPYTFGQGTKLEIKRTVAAPSVFIFPPSDEQLKSGTASVVCLLNNFYPREAKVQWKVDNALQSGNSQESVTEQDSKDSTYSLSSTLTLSKADYEKHKVYACEVTHQGLSSPVTKSFNRGEC	2.3	2.43	6.42	14.9	0.07	6.24	0.99	1.65	1.67	0.7	7	
MC2 (conditionally-active, masked Optimized Construct #3; MM2 and cleavable linker #1) (bispecific antibody) heavy: not shown light: EIVLTQSPATLSLSPGERATLSCGASQSVPINFLAWYQQKPGLAPRLLIYEASSRHTGIPDRFSGSGSGTDFTLTISRLEPEDFAVYYCGQYGSSPYTFGQGTKLEIKRTVAAPSVFIFPPSDEQLKSGTASVVCLLNNFYPREAKVQWKVDNALQSGNSQESVTEQDSKDSTYSLSSTLTLSKADYEKHKVYACEVTHQGLSSPVTKSFNRGEC	2.2	2.54	7.73	17.3	2.44	16.6	0.51	2.97	1.5	0.78	18	
MC4 (conditionally-active, masked Optimized Construct #3; MM2 and cleavable linker #2) (bispecific antibody) heavy: not shown light: EIVLTQSPATLSLSPGERATLSCGASQSVPINFLAWYQQKPGLAPRLLIYEASSRHTGIPDRFSGSGSGTDFTLTISRLEPEDFAVYYCGQYGSSPYTFGQGTKLEIKRTVAAPSVFIFPPSDEQLKSGTASVVCLLNNFYPREAKVQWKVDNALQSGNSQESVTEQDSKDSTYSLSSTLTLSKADYEKHKVYACEVTHQGLSSPVTKSFNRGEC	2.7	2.81	6.82	18.3	1.01	9.81	1.79	2.68	4.8	0.72	11	
anti-4-1BB clone #5d VHH, bivalent monoparatopic Fab-like construct (other, not shown: human CL (lambda) constant domain, tag if any; human IgG1 CH1 domain, HA and 6-His tags) chain 1: QVQLQESGGGLVQPGGSLRLSCVASGFTFANYRMSWVRQAPGKGLEWVSSIKKSGNRTTYSDSVKGRFTISRDNAKNTMFLQMDNLTPEDTAVYFCARGTRYKMSTSGPGTQVTVSS chain 2: QVQLQESGGGLVQPGGSLRLSCVASGFTFANYRMSWVRQAPGKGLEWVSSIKKSGNRTTYSDSVKGRFTISRDNAKNTMFLQMDNLTPEDTAVYFCARGTRYKMSTSGPGTQVTVSS												binding result [1]: binds
anti-4-1BB clone #2 VHH (VHH) VHH: QVQLQESGGGLVQPGGSLRLSCAASGGLFSINTGGWYRQAPGKQRELVATITHDDRTNYAESVKGRFTLSRDNAKNTVYLQMNSLKPEDTAVYYCRLGSAAIRGYWGQGTQVTVSS												binding result [2]: binds
anti-4-1BB VHH Clone #2, bivalent monoparatopic Fab-like construct (other, not shown: human CL (lambda) constant domain, tag if any; human IgG1 CH1 domain, HA and 6-His tags) chain 1: QVQLQESGGGLVQPGGSLRLSCAASGGLFSINTGGWYRQAPGKQRELVATITHDDRTNYAESVKGRFTLSRDNAKNTVYLQMNSLKPEDTAVYYCRLGSAAIRGYWGQGTQVTVSS chain 2: QVQLQESGGGLVQPGGSLRLSCAASGGLFSINTGGWYRQAPGKQRELVATITHDDRTNYAESVKGRFTLSRDNAKNTVYLQMNSLKPEDTAVYYCRLGSAAIRGYWGQGTQVTVSS												binding result (human CD40): no binding; binding result (human OX40): no binding; binding result [18]: binds
